From US20240209100A1 (DIAGONAL THERAPEUTICS, published 2024)
Like-named read-outs stand apart in the source and are kept apart here.

T1: IL-18 receptor (IL-18Rα/IL-18Rβ) overexpressed on HEK-Blue IL-18 cells (Homo sapiens (Human), UniProt Q13478 19-541; O95256 20-599)
T1 sequence 1: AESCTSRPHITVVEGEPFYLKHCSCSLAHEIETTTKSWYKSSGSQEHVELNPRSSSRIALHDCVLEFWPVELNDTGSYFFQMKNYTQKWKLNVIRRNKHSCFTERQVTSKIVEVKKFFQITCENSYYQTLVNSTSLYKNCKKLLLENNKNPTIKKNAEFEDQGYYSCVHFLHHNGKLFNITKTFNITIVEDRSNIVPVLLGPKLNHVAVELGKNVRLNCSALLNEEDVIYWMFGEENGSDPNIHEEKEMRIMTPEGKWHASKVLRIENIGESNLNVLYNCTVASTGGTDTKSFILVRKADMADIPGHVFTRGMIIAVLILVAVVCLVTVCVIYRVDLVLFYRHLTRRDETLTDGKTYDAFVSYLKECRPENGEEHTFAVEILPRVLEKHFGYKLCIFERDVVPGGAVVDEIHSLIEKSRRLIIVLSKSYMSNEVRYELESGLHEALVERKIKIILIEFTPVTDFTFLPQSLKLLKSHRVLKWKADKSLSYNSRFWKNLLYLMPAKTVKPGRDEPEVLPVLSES
T1 sequence 2: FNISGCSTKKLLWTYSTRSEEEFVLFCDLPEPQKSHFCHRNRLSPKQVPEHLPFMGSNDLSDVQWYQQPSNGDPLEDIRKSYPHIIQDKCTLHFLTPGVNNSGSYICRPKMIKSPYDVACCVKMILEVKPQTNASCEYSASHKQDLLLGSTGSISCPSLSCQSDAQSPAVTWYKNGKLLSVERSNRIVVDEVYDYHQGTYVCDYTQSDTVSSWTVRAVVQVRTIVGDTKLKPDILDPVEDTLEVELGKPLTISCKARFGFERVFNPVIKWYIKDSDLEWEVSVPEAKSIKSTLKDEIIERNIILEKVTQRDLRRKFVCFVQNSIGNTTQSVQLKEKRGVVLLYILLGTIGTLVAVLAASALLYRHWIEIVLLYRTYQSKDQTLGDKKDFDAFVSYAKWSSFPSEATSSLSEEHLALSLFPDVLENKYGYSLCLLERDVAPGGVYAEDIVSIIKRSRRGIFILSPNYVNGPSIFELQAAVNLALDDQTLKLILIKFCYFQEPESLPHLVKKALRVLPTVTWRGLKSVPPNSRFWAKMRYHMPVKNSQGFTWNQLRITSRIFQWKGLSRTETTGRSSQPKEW

B1: DGL218 (bispecific antibody)
heavy 1: QVQLVESGGGLVQAGGSLRLSCAASGRTFSKHAMGWFRQAPGKEREFVAAIDWSGGSTYYADSVKGRFTISRDNAKNTVYLQMDSLKPEDTAVYYCAADSYTDYAQLWLPELESEYDYWGQGTLVTVSSCPPCPAPEAAGAPSVFLFPPKPKDTLMISRTPEVTCVVVDVSHEDPEVKFNWYVDGVEVHNAKTKPREEQYNSTYRVVSVLTVLHQDWLNGKEYKCKVSNKALPAPIEKTISKAKGQPREPQVCTLPPSRDELTKNQVSLSCAVKGFYPSDIAVEWESNGQPENNYKTTPPVLDSDGSFFLVSKLTVDKSRWQQGNVFSCSVMHEALHNHYTQKSLSLSPGWSHPQFEK
heavy 2: not shown
B2: DGL160 (bispecific antibody)
heavy 1: QVQLVESGGGLVQAGGSLRLSCAASGRTFSSYTMGWFRQAPGKEREFVAAISWSAGRTYYADSVKGRFTISRDNAKNTVYLQMNSLKPEDTAVYFCAAEEAPDWAPIDCSGYGCLSLYDYWGQGTQVTVSSDKGPSVFPLAPEPKSSEVQLVESGGGLVQAGGSLRLSCAASGRTFRNYHMGWFRQAPGQEREFVAAISSSGGKTSYPDSVNGRFTISRDNAKNTVYLQMNNLKVEDTAVYYCAADPRYWVAAGGSEPENVEVWGQGTLVTVSSDKTHTCPPCPAPEAAGGPSVFLFPPKPKDTLMISRTPEVTCVVVDVSHEDPEVKFNWYVDGVEVHNAKTKPREEQYNSTYRVVSVLTVLHQDWLNGKEYKCKVSNKALPAPIEKTISKAKGQPREPQVCTLPPSRDELTKNQVSLSCAVKGFYPSDIAVEWESNGQPENNYKTTPPVLDSDGSFFLVSKLTVDKSRWQQGNVFSCSVMHEALHNHYTQKSLSLSPG
heavy 2: not shown
B3: DGL093 (bispecific antibody)
heavy 1: QVQLVESGGGLVQAGGSLRLSCAASGRTFSKHAMGWFRQAPGKEREFVAAIDWSGGSTYYADSVKGRFTISRDNAKNTVYLQMDSLKPEDTAVYYCAADSYTDYAQLWLPELESEYDYWGQGTQVTVSSDKTHTCPPCPAPEAAGGPSVFLFPPKPKDTLMISRTPEVTCVVVDVSHEDPEVKFNWYVDGVEVHNAKTKPREEQYNSTYRVVSVLTVLHQDWLNGKEYKCKVSNKALPAPIEKTISKAKGQPREPQVCTLPPSRDELTKNQVSLSCAVKGFYPSDIAVEWESNGQPENNYKTTPPVLDSDGSFFLVSKLTVDKSRWQQGNVFSCSVMHEALHNHYTQKSLSLSPG
heavy 2: not shown
B4: DGL220 (bispecific antibody)
heavy 1: QVQLVESGGGLVQAGGSLRLSCAASGRTFSKHAMGWFRQAPGKEREFVAAIDWSGGSTYYADSVKGRFTISRDNAKNTVYLQMDSLKPEDTAVYYCAADSYTDYAQLWLPELESEYDYWGQGTLVTVSSPLAPCPPCPAPEAAGAPSVFLFPPKPKDTLMISRTPEVTCVVVDVSHEDPEVKFNWYVDGVEVHNAKTKPREEQYNSTYRVVSVLTVLHQDWLNGKEYKCKVSNKALPAPIEKTISKAKGQPREPQVCTLPPSRDELTKNQVSLSCAVKGFYPSDIAVEWESNGQPENNYKTTPPVLDSDGSFFLVSKLTVDKSRWQQGNVFSCSVMHEALHNHYTQKSLSLSPGWSHPQFEK
heavy 2: not shown
B5: DGL222 (bispecific antibody)
heavy 1: QVQLVESGGGLVQAGGSLRLSCAASGRTFSKHAMGWFRQAPGKEREFVAAIDWSGGSTYYADSVKGRFTISRDNAKNTVYLQMDSLKPEDTAVYYCAADSYTDYAQLWLPELESEYDYWGQGTLVTVSSEKSYGPPCPPCPAPEAAGAPSVFLFPPKPKDTLMISRTPEVTCVVVDVSHEDPEVKFNWYVDGVEVHNAKTKPREEQYNSTYRVVSVLTVLHQDWLNGKEYKCKVSNKALPAPIEKTISKAKGQPREPQVCTLPPSRDELTKNQVSLSCAVKGFYPSDIAVEWESNGQPENNYKTTPPVLDSDGSFFLVSKLTVDKSRWQQGNVFSCSVMHEALHNHYTQKSLSLSPGWSHPQFEK
heavy 2: not shown
B6: DGL215 (bispecific antibody)
heavy 1: QVQLVESGGGLVQAGGSLRLSCAASGRTFSKHAMGWFRQAPGKEREFVAAIDWSGGSTYYADSVKGRFTISRDNAKNTVYLQMDSLKPEDTAVYYCAADSYTDYAQLWLPELESEYDYWGQGTLVTVSSDKTHTCPPCPAPEAAGAPSVFLFPPKPKDTLMISRTPEVTCVVVDVSHEDPEVKFNWYVDGVEVHNAKTKPREEQYNSTYRVVSVLTVLHQDWLNGKEYKCKVSNKALPAPIEKTISKAKGQPREPQVCTLPPSRDELTKNQVSLSCAVKGFYPSDIAVEWESNGQPENNYKTTPPVLDSDGSFFLVSKLTVDKSRWQQGNVFSCSVMHEALHNHYTQKSLSLSPGWSHPQFEK
heavy 2: QLQLVESGGGLVQAGGSLRLSCAASRSITFSHNVMGWYRQAPGKQRELVASIGSGGSTNYVDSVKGRATISRDNAKKTVYLQMNSLKPEDTAVYYCGVVVGVYRGSLGQGTLVTVSSPLAPCPPCPAPEAAGAPSVFLFPPKPKDTLMISRTPEVTCVVVDVSHEDPEVKFNWYVDGVEVHNAKTKPREEQYNSTYRVVSVLTVLHQDWLNGKEYKCKVSNKALPAPIEKTISKAKGQPREPQVYTLPPCRDELTKNQVSLWCLVKGFYPSDIAVEWESNGQPENNYKTTPPVLDSDGSFFLYSKLTVDKSRWQQGNVFSCSVMHEALHNHYTQKSLSLSPGEPEA
B7: DGL217 (bispecific antibody)
heavy 1: B6 heavy 1
heavy 2: QLQLVESGGGLVQAGGSLRLSCAASRSITFSHNVMGWYRQAPGKQRELVASIGSGGSTNYVDSVKGRATISRDNAKKTVYLQMNSLKPEDTAVYYCGVVVGVYRGSLGQGTLVTVSSEKSYGPPCPPCPAPEAAGAPSVFLFPPKPKDTLMISRTPEVTCVVVDVSHEDPEVKFNWYVDGVEVHNAKTKPREEQYNSTYRVVSVLTVLHQDWLNGKEYKCKVSNKALPAPIEKTISKAKGQPREPQVYTLPPCRDELTKNQVSLWCLVKGFYPSDIAVEWESNGQPENNYKTTPPVLDSDGSFFLYSKLTVDKSRWQQGNVFSCSVMHEALHNHYTQKSLSLSPGEPEA
B8: DGL216 (bispecific antibody)
heavy 1: B6 heavy 1
heavy 2: QLQLVESGGGLVQAGGSLRLSCAASRSITFSHNVMGWYRQAPGKQRELVASIGSGGSTNYVDSVKGRATISRDNAKKTVYLQMNSLKPEDTAVYYCGVVVGVYRGSLGQGTLVTVSSGGGGSGGGGSGGGGSGGGGSCPPCPAPEAAGAPSVFLFPPKPKDTLMISRTPEVTCVVVDVSHEDPEVKFNWYVDGVEVHNAKTKPREEQYNSTYRVVSVLTVLHQDWLNGKEYKCKVSNKALPAPIEKTISKAKGQPREPQVYTLPPCRDELTKNQVSLWCLVKGFYPSDIAVEWESNGQPENNYKTTPPVLDSDGSFFLYSKLTVDKSRWQQGNVFSCSVMHEALHNHYTQKSLSLSPGEPEA
B9: DGL221 (bispecific antibody)
heavy 1: QVQLVESGGGLVQAGGSLRLSCAASGRTFSKHAMGWFRQAPGKEREFVAAIDWSGGSTYYADSVKGRFTISRDNAKNTVYLQMDSLKPEDTAVYYCAADSYTDYAQLWLPELESEYDYWGQGTLVTVSSGGGGSGGGGSGGGGSGGGGSCPPCPAPEAAGAPSVFLFPPKPKDTLMISRTPEVTCVVVDVSHEDPEVKFNWYVDGVEVHNAKTKPREEQYNSTYRVVSVLTVLHQDWLNGKEYKCKVSNKALPAPIEKTISKAKGQPREPQVCTLPPSRDELTKNQVSLSCAVKGFYPSDIAVEWESNGQPENNYKTTPPVLDSDGSFFLVSKLTVDKSRWQQGNVFSCSVMHEALHNHYTQKSLSLSPGWSHPQFEK
heavy 2: not shown
B10: DGL219 (bispecific antibody)
heavy 1: QVQLVESGGGLVQAGGSLRLSCAASGRTFSKHAMGWFRQAPGKEREFVAAIDWSGGSTYYADSVKGRFTISRDNAKNTVYLQMDSLKPEDTAVYYCAADSYTDYAQLWLPELESEYDYWGQGTLVTVSSPLAPDKTHTCPPCPAPEAAGAPSVFLFPPKPKDTLMISRTPEVTCVVVDVSHEDPEVKFNWYVDGVEVHNAKTKPREEQYNSTYRVVSVLTVLHQDWLNGKEYKCKVSNKALPAPIEKTISKAKGQPREPQVCTLPPSRDELTKNQVSLSCAVKGFYPSDIAVEWESNGQPENNYKTTPPVLDSDGSFFLVSKLTVDKSRWQQGNVFSCSVMHEALHNHYTQKSLSLSPGWSHPQFEK
heavy 2: not shown

Key:
Experiment in all cases: cell-based or functional assay
[1] = target: T1, IL-18 receptor (IL-18Rα/IL-18Rβ) …
[2] = target: T1, IL-18 receptor (IL-18Rα/IL-18Rβ) …; remark: listed apart in the source
[3] = target: T1, IL-18 receptor (IL-18Rα/IL-18Rβ) …; remark: listed apart in the source
[4] = target: T1, IL-18 receptor (IL-18Rα/IL-18Rβ) …; remark: listed apart in the source

Row | Binder | HEK-Blue IL-18: Abs 405 at 100 nM [1] [Abs] | HEK-Blue IL-18: Fold over Background [1] [fold] | other results
1 | B1 | 1.3 | 5.5 | –
2 | B2 | – | – | HEK-Blue IL-18: Abs 405 [2]: 0.16 Abs; HEK-Blue IL-18: Fold over Background [2]: 1.3 fold
3 | B3 | 0.9 | 4.1 | HEK-Blue IL-18: Fold over Background [3]: 9.2 fold; HEK-Blue IL-18: Abs405 (Emax) [4]: 1.38 Abs; HEK-Blue IL-18: EC50 [4]: 8.3 pM
4 | B4 | 1.5 | 6.6 | –
5 | B5 | 1.3 | 5.5 | –
6 | B6 | 1.4 | 6.1 | –
7 | B7 | 1.3 | 5.6 | –
8 | B8 | 0.8 | 3.4 | –
9 | B9 | 0.6 | 2.4 | –
10 | B10 | 1 | 4.4 | –
